Data from patent publication US20150044701A1, “IgA-BINDING PEPTIDE AND IgA PURIFICATION USING THE SAME” (KAGOSHIMA UNIVERSITY, priority 2011, published 2015).
No end group written: not given here.

target: human IgA (human); experiment: SPR (Biacore T100); conditions: not given

Kd | Molecule
149 nM | HQVCLSYRGRPTCFSL (not fully specified (bridges); cysteine pairing not given here) [Opt2 M2Q V12T]
952 nM | HQVCLSYRGRPTCFST (not fully specified (bridges); cysteine pairing not given here) [Opt2 M2Q L16T V12T]
65 nM | HQVCLSYRGQPVCFSL (not fully specified (bridges); cysteine pairing not given here) [Opt2 M2Q R10Q]

Continued, molecule first:

Molecule | Kd
HQVCLSYRGRPVCFST (not fully specified (bridges); cysteine pairing not given here) [Opt2 M2Q L16T] | 72 nM
HMVCLSYRGRPVCFS (not fully specified (bridges); cysteine pairing not given here) [Opt2 15AA] | 491 nM
HQVCLSYRGQPTCFST (not fully specified (bridges); cysteine pairing not given here) [Opt2 M2Q L16T R10 Q V12T] | 2820 nM
HQVCLSYRGQPVCFST (not fully specified (bridges); cysteine pairing not given here) [Opt2 M2Q L16T R10Q] | 699 nM
HQVCLSYRGRPVCFSL (not fully specified (bridges); cysteine pairing not given here) [Opt2 M2Q] | 23 nM
HMVCLSYRGRPVCF (not fully specified (bridges); cysteine pairing not given here) [Opt2 14AA] | 603 nM
HQVCLSYRGRPVCYSL (not fully specified (bridges); cysteine pairing not given here) [Opt2 M2Q F14Y] | 624 nM

target: human IgA; experiment: Surface plasmon resonance analysis (BiaCore T100) of peptide binding to human IgA; conditions: binding affinity to human IgA
Procedure: In order to verify binding specificity of such peptides, binding strength was evaluated via surface plasmon resonance analysis using a BiaCore T100 (GE Healthcare).

Kd | Molecule
149 nM | HQVCLSYRGRPTCFSL [Opt2 M2Q V12T]
72 nM | HQVCLSYRGRPVCFST [Opt2 M2Q L16T]
952 nM | HQVCLSYRGRPTCFST [Opt2 M2Q L16T V12T]
23 nM | HQVCLSYRGRPVCFSL [Opt2 M2Q]
65 nM | HQVCLSYRGQPVCFSL [Opt2 M2Q R10Q]

Second part, the molecule before the results:

Molecule | Kd
HMVCLSYRGRPVCF [Opt2 14AA] | 603 nM
HQVCLSYRGQPVCFST [Opt2 M2Q L16T R10Q] | 699 nM
HQVCLSYRGRPVCYSL [Opt2 M2Q F14Y] | 624 nM
HMVCLSYRGRPVCFS [Opt2 15AA] | 491 nM
HQVCLSYRGQPTCFST [Opt2 M2Q L16T R10 Q V12T] | 2820 nM
